From the supplement of paper PMC9112550, “Optimization of the antimicrobial peptide Bac7 by deep mutational scanning” (BMC Biology, 2022)
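Also: peptides expressed intracellularly from a pBAD plasmid library in pooled LB shake-flask culture, induced with 0.3% L-arabinose, DNA abundance read by NGS, three biological replicates, DESeq2 with apeglm shrinkage.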

These sequences were tested on Escherichia coli TOP10 (assay: shrunken log2 fold change of peptide-encoding DNA abundance (4.5 h post-induction vs induction); higher = less antimicrobial activity (less host growth inhibition)). Settings: time post-induction: 4.5 h; library: site-saturation at positions 5, 18, 19, 20.
RRIRERPPRLPRPRPRPRHSPRP was tested, and the “shrunken log2 fold change” value was -0.137. RRIRHRPPRLPRPRPRPIWIPRP was tested, and the “shrunken log2 fold change” value was 0.0409. For RRIRYRPPRLPRPRPRPTMQPRP, the “shrunken log2 fold change” value was -0.0804. RRIRKRPPRLPRPRPRPKYPPRP was tested, and the “shrunken log2 fold change” value was 0.0162. With RRIRGRPPRLPRPRPRPAFEPRP the “shrunken log2 fold change” value was 0.414. For RRIRCRPPRLPRPRPRPEKEPRP, the “shrunken log2 fold change” value was -0.0494. RRIRMRPPRLPRPRPRPKTKPRP was tested, and the “shrunken log2 fold change” value was 0.557. For RRIRDRPPRLPRPRPRPGRSPRP, the “shrunken log2 fold change” value was 0.0526. For RRIRTRPPRLPRPRPRPAEHPRP, the “shrunken log2 fold change” value was -0.0944. RRIRHRPPRLPRPRPRPCYLPRP was tested, and the “shrunken log2 fold change” value was -0.897. In the case of RRIRTRPPRLPRPRPRPSDGPRP, the “shrunken log2 fold change” value was 0.0381. With RRIRARPPRLPRPRPRPKADPRP the “shrunken log2 fold change” value was 0.597. RRIRLRPPRLPRPRPRPRTYPRP was tested, and the “shrunken log2 fold change” value was -0.319. RRIRHRPPRLPRPRPRPGWPPRP was tested, and the “shrunken log2 fold change” value was 0.424. With RRIRTRPPRLPRPRPRPQIQPRP the “shrunken log2 fold change” value was -0.418. RRIRNRPPRLPRPRPRPRVWPRP was tested, and the “shrunken log2 fold change” value was 3.4. With RRIRLRPPRLPRPRPRPGAMPRP the “shrunken log2 fold change” value was 0.34. RRIRARPPRLPRPRPRPSNQPRP was tested, and the “shrunken log2 fold change” value was -0.0197. With RRIRQRPPRLPRPRPRPNPIPRP the “shrunken log2 fold change” value was 0.0989. In the case of RRIRNRPPRLPRPRPRPYNEPRP, the “shrunken log2 fold change” value was -0.11. With RRIRWRPPRLPRPRPRPAARPRP the “shrunken log2 fold change” value was 0.622. For RRIRQRPPRLPRPRPRPPIEPRP, the “shrunken log2 fold change” value was -0.09. With RRIRERPPRLPRPRPRPGQPPRP the “shrunken log2 fold change” value was 0.0236. With RRIRARPPRLPRPRPRPCVFPRP the “shrunken log2 fold change” value was 0.39. With RRIRYRPPRLPRPRPRPRFEPRP the “shrunken log2 fold change” value was -0.386. RRIRIRPPRLPRPRPRPVSYPRP was tested, and the “shrunken log2 fold change” value was -0.599. RRIRWRPPRLPRPRPRPEYCPRP was tested, and the “shrunken log2 fold change” value was 1.23. With RRIRLRPPRLPRPRPRPDICPRP the “shrunken log2 fold change” value was -0.102. RRIRPRPPRLPRPRPRPRMNPRP was tested, and the “shrunken log2 fold change” value was 0.0159. RRIRERPPRLPRPRPRPFKWPRP was tested, and the “shrunken log2 fold change” value was -0.0223. For RRIRVRPPRLPRPRPRPPCFPRP, the “shrunken log2 fold change” value was 0.17. In the case of RRIRHRPPRLPRPRPRPNMPPRP, the “shrunken log2 fold change” value was 0.0144. RRIRTRPPRLPRPRPRPQQGPRP was tested, and the “shrunken log2 fold change” value was -0.238. RRIRPRPPRLPRPRPRPVKWPRP was tested, and the “shrunken log2 fold change” value was 0.00231. With RRIRERPPRLPRPRPRPQDAPRP the “shrunken log2 fold change” value was 0.0745. For RRIRRRPPRLPRPRPRPQMRPRP, the “shrunken log2 fold change” value was 1.05. RRIRERPPRLPRPRPRPIVTPRP was tested, and the “shrunken log2 fold change” value was -0.158. RRIRARPPRLPRPRPRPCLFPRP was tested, and the “shrunken log2 fold change” value was -0.131. For RRIRVRPPRLPRPRPRPGRNPRP, the “shrunken log2 fold change” value was -0.00746. In the case of RRIRERPPRLPRPRPRPDRRPRP, the “shrunken log2 fold change” value was 0.0868. With RRIRMRPPRLPRPRPRPATLPRP the “shrunken log2 fold change” value was 0.132. For RRIRQRPPRLPRPRPRPGDDPRP, the “shrunken log2 fold change” value was 0.176. RRIRSRPPRLPRPRPRPGIAPRP was tested, and the “shrunken log2 fold change” value was 0.409. For RRIRTRPPRLPRPRPRPYRWPRP, the “shrunken log2 fold change” value was -0.281. With RRIRQRPPRLPRPRPRPSIDPRP the “shrunken log2 fold change” value was -0.607. With RRIRVRPPRLPRPRPRPQWKPRP the “shrunken log2 fold change” value was -0.207. RRIRMRPPRLPRPRPRPIMFPRP was tested, and the “shrunken log2 fold change” value was -0.103. For RRIRVRPPRLPRPRPRPDGWPRP, the “shrunken log2 fold change” value was 0.223. With RRIRIRPPRLPRPRPRPHFIPRP the “shrunken log2 fold change” value was -0.564. RRIRRRPPRLPRPRPRPVNMPRP was tested, and the “shrunken log2 fold change” value was -0.156. In the case of RRIRCRPPRLPRPRPRPRFHPRP, the “shrunken log2 fold change” value was -0.393. With RRIRQRPPRLPRPRPRPDAFPRP the “shrunken log2 fold change” value was 0.141. With RRIRYRPPRLPRPRPRPLEVPRP the “shrunken log2 fold change” value was -0.335. In the case of RRIRERPPRLPRPRPRPCDKPRP, the “shrunken log2 fold change” value was 0.0148. RRIRYRPPRLPRPRPRPIDMPRP was tested, and the “shrunken log2 fold change” value was -0.315. With RRIRRRPPRLPRPRPRPIRPPRP the “shrunken log2 fold change” value was 0.198. With RRIRKRPPRLPRPRPRPCGQPRP the “shrunken log2 fold change” value was 0.0682. RRIRLRPPRLPRPRPRPICLPRP was tested, and the “shrunken log2 fold change” value was 0.193. With RRIRNRPPRLPRPRPRPPDKPRP the “shrunken log2 fold change” value was 0.182. In the case of RRIRKRPPRLPRPRPRPGMRPRP, the “shrunken log2 fold change” value was 0.926. RRIRSRPPRLPRPRPRPRACPRP was tested, and the “shrunken log2 fold change” value was 0.403. For RRIRSRPPRLPRPRPRPCKAPRP, the “shrunken log2 fold change” value was 0.00989. In the case of RRIRFRPPRLPRPRPRPKKCPRP, the “shrunken log2 fold change” value was 0.107. In the case of RRIRERPPRLPRPRPRPTKDPRP, the “shrunken log2 fold change” value was -0.239. For RRIRWRPPRLPRPRPRPHRWPRP, the “shrunken log2 fold change” value was 0.103. For RRIRSRPPRLPRPRPRPEQWPRP, the “shrunken log2 fold change” value was 0.172. In the case of RRIRYRPPRLPRPRPRPDTFPRP, the “shrunken log2 fold change” value was -0.016. In the case of RRIRTRPPRLPRPRPRPIAYPRP, the “shrunken log2 fold change” value was 0.0173. RRIRWRPPRLPRPRPRPHQVPRP was tested, and the “shrunken log2 fold change” value was -0.145. With RRIRARPPRLPRPRPRPIGDPRP the “shrunken log2 fold change” value was 0.24. With RRIRDRPPRLPRPRPRPNLNPRP the “shrunken log2 fold change” value was -0.229. RRIRVRPPRLPRPRPRPLNNPRP was tested, and the “shrunken log2 fold change” value was -0.733. For RRIRMRPPRLPRPRPRPLCNPRP, the “shrunken log2 fold change” value was 0.0857. RRIRKRPPRLPRPRPRPQIPPRP was tested, and the “shrunken log2 fold change” value was -0.0346. In the case of RRIRTRPPRLPRPRPRPEYSPRP, the “shrunken log2 fold change” value was -0.0382. In the case of RRIRPRPPRLPRPRPRPYLKPRP, the “shrunken log2 fold change” value was -0.259. In the case of RRIRWRPPRLPRPRPRPSMLPRP, the “shrunken log2 fold change” value was -0.369. RRIRKRPPRLPRPRPRPWSIPRP was tested, and the “shrunken log2 fold change” value was -0.304. In the case of RRIRQRPPRLPRPRPRPVQEPRP, the “shrunken log2 fold change” value was 0.00554. For RRIRQRPPRLPRPRPRPMMWPRP, the “shrunken log2 fold change” value was 0.0311. For RRIRKRPPRLPRPRPRPMFIPRP, the “shrunken log2 fold change” value was -0.0367. With RRIRVRPPRLPRPRPRPGHMPRP the “shrunken log2 fold change” value was 0.0482. RRIRSRPPRLPRPRPRPLDNPRP was tested, and the “shrunken log2 fold change” value was -0.339. With RRIRHRPPRLPRPRPRPKDIPRP the “shrunken log2 fold change” value was -0.504. For RRIRSRPPRLPRPRPRPNKLPRP, the “shrunken log2 fold change” value was -0.643. For RRIRNRPPRLPRPRPRPGEMPRP, the “shrunken log2 fold change” value was 0.336. With RRIRFRPPRLPRPRPRPFPWPRP the “shrunken log2 fold change” value was -0.211. For RRIRQRPPRLPRPRPRPGEMPRP, the “shrunken log2 fold change” value was 0.0469. With RRIRPRPPRLPRPRPRPRDRPRP the “shrunken log2 fold change” value was 0.18. With RRIRYRPPRLPRPRPRPIAFPRP the “shrunken log2 fold change” value was -0.564. With RRIRNRPPRLPRPRPRPDHGPRP the “shrunken log2 fold change” value was -0.319. For RRIRDRPPRLPRPRPRPAWMPRP, the “shrunken log2 fold change” value was -0.0284. RRIRCRPPRLPRPRPRPQGKPRP was tested, and the “shrunken log2 fold change” value was -0.145. With RRIRARPPRLPRPRPRPHEMPRP the “shrunken log2 fold change” value was 0.588. For RRIRERPPRLPRPRPRPDMWPRP, the “shrunken log2 fold change” value was -0.0874. In the case of RRIRTRPPRLPRPRPRPPWQPRP, the “shrunken log2 fold change” value was 0.698. In the case of RRIRVRPPRLPRPRPRPFVAPRP, the “shrunken log2 fold change” value was -0.118. For RRIRDRPPRLPRPRPRPHGQPRP, the “shrunken log2 fold change” value was 0.237. For RRIRCRPPRLPRPRPRPEDTPRP, the “shrunken log2 fold change” value was -0.146. RRIRLRPPRLPRPRPRPINRPRP was tested, and the “shrunken log2 fold change” value was 0.0141. For RRIRWRPPRLPRPRPRPQPFPRP, the “shrunken log2 fold change” value was 0.133. In the case of RRIRFRPPRLPRPRPRPQVAPRP, the “shrunken log2 fold change” value was 0.147. In the case of RRIRPRPPRLPRPRPRPERNPRP, the “shrunken log2 fold change” value was -0.307. RRIRARPPRLPRPRPRPITNPRP was tested, and the “shrunken log2 fold change” value was -0.54. In the case of RRIRLRPPRLPRPRPRPFVKPRP, the “shrunken log2 fold change” value was -0.225. RRIRSRPPRLPRPRPRPVGTPRP was tested, and the “shrunken log2 fold change” value was -0.0487. In the case of RRIRRRPPRLPRPRPRPFITPRP, the “shrunken log2 fold change” value was -0.257. For RRIRNRPPRLPRPRPRPYKHPRP, the “shrunken log2 fold change” value was -0.819. For RRIRYRPPRLPRPRPRPYPEPRP, the “shrunken log2 fold change” value was -0.173. In the case of RRIRCRPPRLPRPRPRPGCGPRP, the “shrunken log2 fold change” value was 0.545. In the case of RRIRLRPPRLPRPRPRPCCFPRP, the “shrunken log2 fold change” value was -0.0513. In the case of RRIRARPPRLPRPRPRPVFLPRP, the “shrunken log2 fold change” value was 1.14. RRIRYRPPRLPRPRPRPESNPRP was tested, and the “shrunken log2 fold change” value was -0.23. RRIRPRPPRLPRPRPRPPYLPRP was tested, and the “shrunken log2 fold change” value was -0.376. In the case of RRIRSRPPRLPRPRPRPAVRPRP, the “shrunken log2 fold change” value was -0.103. In the case of RRIRLRPPRLPRPRPRPIQKPRP, the “shrunken log2 fold change” value was 0.0625. For RRIRKRPPRLPRPRPRPIKVPRP, the “shrunken log2 fold change” value was -0.386. For RRIRNRPPRLPRPRPRPIVVPRP, the “shrunken log2 fold change” value was 0.0207. With RRIRVRPPRLPRPRPRPCKSPRP the “shrunken log2 fold change” value was -0.214. RRIRSRPPRLPRPRPRPSPGPRP was tested, and the “shrunken log2 fold change” value was 0.312. RRIRIRPPRLPRPRPRPQFEPRP was tested, and the “shrunken log2 fold change” value was -0.0601. For RRIRARPPRLPRPRPRPRWAPRP, the “shrunken log2 fold change” value was 1.05. In the case of RRIRSRPPRLPRPRPRPDWVPRP, the “shrunken log2 fold change” value was 0.305. For RRIRWRPPRLPRPRPRPSCCPRP, the “shrunken log2 fold change” value was 0.174. For RRIRYRPPRLPRPRPRPCIGPRP, the “shrunken log2 fold change” value was -0.644.
